Data as given in publication PMC2909203, “Defining the Functional Domain of Programmed Cell Death 10 through Its Interactions with Phosphatidylinositol-3,4,5-Trisphosphate” (PLoS ONE, 2010).

B1: Recombinant murine 6xHis-PDCD10, wild type (natural protein)
chain: not shown
notes: PDCD10 (CCM3), murine, full length, amplified from a mouse fibroblast cDNA library and cloned into pMCSG7-His; 212 amino acids; Dimer in solution by SEC-MALS; also called CCM3; WT; not shown: 6xHis, N-terminal, kept
B2: Recombinant murine 6xHis-PDCD10 Δ5KA mutant (K169A, K172A, K179A, K183A, K186A) (natural protein)
chain: not shown
notes: PDCD10 (CCM3), murine, full length, with five K-to-A mutations made by site-directed mutagenesis; Dimer in solution by SEC-MALS; also called Δ5KA PDCD10; mutant Δ5KA ccm3; source: E. coli BL21DE3, purified; not shown: 6xHis, N-terminal, kept

Biological target: the molecule itself
Test: SEC-MALS; 0.2 to 0.4 mg/ml purified His-tag protein in 10 mM phosphate buffer, pH 7.0, 500 mM NaCl; self-association, dimer the only species

Protein	stoichiometry N
B1	2
B2	2
